{
  "source": "paper PMC3634864",
  "origin": "cited, not measured here",
  "target": "Hemoglobin (Homo sapiens) (UniProt P69905)",
  "sequence (P69905 2-142, chain 1 of 2)": "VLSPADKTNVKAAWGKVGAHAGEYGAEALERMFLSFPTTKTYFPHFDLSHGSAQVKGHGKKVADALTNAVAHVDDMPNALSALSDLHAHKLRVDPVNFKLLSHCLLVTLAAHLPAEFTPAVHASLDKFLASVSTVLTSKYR",
  "sequence (P68871 2-147, chain 2 of 2, further chain)": "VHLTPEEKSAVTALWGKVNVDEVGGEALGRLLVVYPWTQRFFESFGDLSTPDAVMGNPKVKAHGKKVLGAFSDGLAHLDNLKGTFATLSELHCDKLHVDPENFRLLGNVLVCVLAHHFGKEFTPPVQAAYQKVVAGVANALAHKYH",
  "data": [
    {"substance": "Haptoglobin (from UniProt P00738)", "values": [
      {"measurement": "Kd", "value": "< 1", "unit": "pM"}
    ]}
  ]
}
